From the supplement of paper PMC9112550, “Optimization of the antimicrobial peptide Bac7 by deep mutational scanning” (BMC Biology, 2022)

System: Escherichia coli TOP10
Assay: shrunken log2 fold change of peptide-encoding DNA abundance (4.5 h post-induction vs induction); higher = less antimicrobial activity (less host growth inhibition)
Conditions: time post-induction: 4.5 h; library: site-saturation at positions 5, 18, 19, 20
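Also: peptides expressed intracellularly from a pBAD plasmid library in pooled LB shake-flask culture, induced with 0.3% L-arabinose, DNA abundance read by NGS, three biological replicates, DESeq2 with apeglm shrinkage.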

How did the “shrunken log2 fold change” value turn out when RRIRPRPPRLPRPRPRPNSSPRP was run?
The value was -0.396.

For RRIRPRPPRLPRPRPRPNVPPRP, which “shrunken log2 fold change” value is on record?
Its value is -0.11.

RRIRPRPPRLPRPRPRPNWLPRP was tested. Which “shrunken log2 fold change” value did it give?
The value was 0.124.

RRIRPRPPRLPRPRPRPNWPPRP was tested. Which “shrunken log2 fold change” value did it give?
Its value is 0.0357.

With RRIRPRPPRLPRPRPRPNYNPRP as the sequence, how does the “shrunken log2 fold change” value read?
The value was -0.676.

With RRIRPRPPRLPRPRPRPPEIPRP as the sequence, how does the “shrunken log2 fold change” value read?
The value was -0.0297.

With RRIRPRPPRLPRPRPRPPERPRP as the sequence, how does the “shrunken log2 fold change” value read?
Its value is 0.322.

RRIRPRPPRLPRPRPRPPETPRP was tested. Which “shrunken log2 fold change” value did it give?
Its value is 0.407.

For RRIRPRPPRLPRPRPRPPFHPRP, which “shrunken log2 fold change” value is on record?
Its value is 0.011.

RRIRPRPPRLPRPRPRPPGAPRP was tested. Which “shrunken log2 fold change” value did it give?
Its value is 0.806.

With RRIRPRPPRLPRPRPRPPGNPRP as the sequence, how does the “shrunken log2 fold change” value read?
Its value is 0.105.

Which “shrunken log2 fold change” value does the source give for RRIRPRPPRLPRPRPRPPIEPRP here?
The value was -0.0597.

RRIRPRPPRLPRPRPRPPKFPRP was tested. Which “shrunken log2 fold change” value did it give?
The value was 0.0927.

For RRIRPRPPRLPRPRPRPPKGPRP, which “shrunken log2 fold change” value is on record?
The value was 0.308.

With RRIRPRPPRLPRPRPRPPMEPRP as the sequence, how does the “shrunken log2 fold change” value read?
The value was 0.127.

How did the “shrunken log2 fold change” value turn out when RRIRPRPPRLPRPRPRPPPLPRP was run?
Its value is 0.699.

For RRIRPRPPRLPRPRPRPPPWPRP, which “shrunken log2 fold change” value is on record?
Its value is 0.588.

RRIRPRPPRLPRPRPRPPSLPRP was tested. Which “shrunken log2 fold change” value did it give?
The value was 0.381.

Which “shrunken log2 fold change” value does the source give for RRIRPRPPRLPRPRPRPPSWPRP here?
The value was 0.54.

RRIRPRPPRLPRPRPRPPTHPRP was tested. Which “shrunken log2 fold change” value did it give?
The value was 0.317.

Which “shrunken log2 fold change” value does the source give for RRIRPRPPRLPRPRPRPPTKPRP here?
Its value is 0.268.

Which “shrunken log2 fold change” value does the source give for RRIRPRPPRLPRPRPRPPTVPRP here?
The value was 0.279.

Which “shrunken log2 fold change” value does the source give for RRIRPRPPRLPRPRPRPPWSPRP here?
The value was 0.00901.

RRIRPRPPRLPRPRPRPPYYPRP was tested. Which “shrunken log2 fold change” value did it give?
Its value is -0.492.

Which “shrunken log2 fold change” value does the source give for RRIRPRPPRLPRPRPRPQAIPRP here?
The value was 0.186.

For RRIRPRPPRLPRPRPRPQCIPRP, which “shrunken log2 fold change” value is on record?
The value was -0.182.

For RRIRPRPPRLPRPRPRPQETPRP, which “shrunken log2 fold change” value is on record?
The value was 0.134.

For RRIRPRPPRLPRPRPRPQEVPRP, which “shrunken log2 fold change” value is on record?
Its value is 0.0706.

For RRIRPRPPRLPRPRPRPQFYPRP, which “shrunken log2 fold change” value is on record?
The value was -0.592.

With RRIRPRPPRLPRPRPRPQGFPRP as the sequence, how does the “shrunken log2 fold change” value read?
Its value is -0.0446.

RRIRPRPPRLPRPRPRPQGPPRP was tested. Which “shrunken log2 fold change” value did it give?
The value was 0.0552.

RRIRPRPPRLPRPRPRPQHHPRP was tested. Which “shrunken log2 fold change” value did it give?
Its value is -0.302.

With RRIRPRPPRLPRPRPRPQHNPRP as the sequence, how does the “shrunken log2 fold change” value read?
Its value is -0.536.

Which “shrunken log2 fold change” value does the source give for RRIRPRPPRLPRPRPRPQIYPRP here?
Its value is -0.858.

How did the “shrunken log2 fold change” value turn out when RRIRPRPPRLPRPRPRPQKPPRP was run?
The value was 0.163.

RRIRPRPPRLPRPRPRPQPAPRP was tested. Which “shrunken log2 fold change” value did it give?
Its value is 0.0892.

Which “shrunken log2 fold change” value does the source give for RRIRPRPPRLPRPRPRPQRCPRP here?
Its value is -0.0388.

How did the “shrunken log2 fold change” value turn out when RRIRPRPPRLPRPRPRPQSCPRP was run?
The value was -0.0478.

With RRIRPRPPRLPRPRPRPQSGPRP as the sequence, how does the “shrunken log2 fold change” value read?
Its value is 0.259.

Which “shrunken log2 fold change” value does the source give for RRIRPRPPRLPRPRPRPQSVPRP here?
Its value is -0.0354.

With RRIRPRPPRLPRPRPRPQTDPRP as the sequence, how does the “shrunken log2 fold change” value read?
The value was -0.0886.

How did the “shrunken log2 fold change” value turn out when RRIRPRPPRLPRPRPRPQTLPRP was run?
Its value is 0.000929.

With RRIRPRPPRLPRPRPRPQVMPRP as the sequence, how does the “shrunken log2 fold change” value read?
Its value is -0.286.

With RRIRPRPPRLPRPRPRPQVNPRP as the sequence, how does the “shrunken log2 fold change” value read?
The value was -0.279.

Which “shrunken log2 fold change” value does the source give for RRIRPRPPRLPRPRPRPQYAPRP here?
Its value is -0.103.

With RRIRPRPPRLPRPRPRPQYMPRP as the sequence, how does the “shrunken log2 fold change” value read?
Its value is -0.506.

For RRIRPRPPRLPRPRPRPRALPRP, which “shrunken log2 fold change” value is on record?
The value was 0.388.

Which “shrunken log2 fold change” value does the source give for RRIRPRPPRLPRPRPRPRAPPRP here?
The value was 0.683.

Which “shrunken log2 fold change” value does the source give for RRIRPRPPRLPRPRPRPRCLPRP here?
The value was -0.0858.

How did the “shrunken log2 fold change” value turn out when RRIRPRPPRLPRPRPRPRDDPRP was run?
The value was 0.23.

RRIRPRPPRLPRPRPRPRDPPRP was tested. Which “shrunken log2 fold change” value did it give?
Its value is 0.695.

Which “shrunken log2 fold change” value does the source give for RRIRPRPPRLPRPRPRPREAPRP here?
Its value is 0.44.

For RRIRPRPPRLPRPRPRPREPPRP, which “shrunken log2 fold change” value is on record?
Its value is 0.0876.

How did the “shrunken log2 fold change” value turn out when RRIRPRPPRLPRPRPRPREQPRP was run?
The value was 0.00917.

For RRIRPRPPRLPRPRPRPRESPRP, which “shrunken log2 fold change” value is on record?
The value was 0.0752.

How did the “shrunken log2 fold change” value turn out when RRIRPRPPRLPRPRPRPRHNPRP was run?
The value was -0.0793.

RRIRPRPPRLPRPRPRPRIEPRP was tested. Which “shrunken log2 fold change” value did it give?
Its value is 0.175.

RRIRPRPPRLPRPRPRPRQNPRP was tested. Which “shrunken log2 fold change” value did it give?
The value was 0.463.

How did the “shrunken log2 fold change” value turn out when RRIRPRPPRLPRPRPRPRRCPRP was run?
The value was 0.388.

For RRIRPRPPRLPRPRPRPRRHPRP, which “shrunken log2 fold change” value is on record?
Its value is 0.241.

How did the “shrunken log2 fold change” value turn out when RRIRPRPPRLPRPRPRPRRVPRP was run?
Its value is 0.098.

Which “shrunken log2 fold change” value does the source give for RRIRPRPPRLPRPRPRPRTWPRP here?
Its value is 0.537.

Which “shrunken log2 fold change” value does the source give for RRIRPRPPRLPRPRPRPRVKPRP here?
Its value is -0.0194.

How did the “shrunken log2 fold change” value turn out when RRIRPRPPRLPRPRPRPRVNPRP was run?
Its value is -0.194.

RRIRPRPPRLPRPRPRPRWHPRP was tested. Which “shrunken log2 fold change” value did it give?
Its value is 0.186.

With RRIRPRPPRLPRPRPRPSCAPRP as the sequence, how does the “shrunken log2 fold change” value read?
The value was 0.0332.

How did the “shrunken log2 fold change” value turn out when RRIRPRPPRLPRPRPRPSCDPRP was run?
The value was -0.273.

For RRIRPRPPRLPRPRPRPSCTPRP, which “shrunken log2 fold change” value is on record?
The value was -0.221.

For RRIRPRPPRLPRPRPRPSDGPRP, which “shrunken log2 fold change” value is on record?
The value was -0.26.

For RRIRPRPPRLPRPRPRPSDMPRP, which “shrunken log2 fold change” value is on record?
Its value is -0.273.

With RRIRPRPPRLPRPRPRPSEDPRP as the sequence, how does the “shrunken log2 fold change” value read?
Its value is 0.485.

With RRIRPRPPRLPRPRPRPSEPPRP as the sequence, how does the “shrunken log2 fold change” value read?
Its value is -0.213.

For RRIRPRPPRLPRPRPRPSERPRP, which “shrunken log2 fold change” value is on record?
Its value is -0.0297.

With RRIRPRPPRLPRPRPRPSGFPRP as the sequence, how does the “shrunken log2 fold change” value read?
The value was 0.241.

RRIRPRPPRLPRPRPRPSHEPRP was tested. Which “shrunken log2 fold change” value did it give?
The value was 0.0992.
